Target: T1, Ubc9 (wild type) (UniProt P63279 1-158)
T1 construct: Ubc9, the single SUMO conjugating enzyme (E2); the crystal structure PDB 2GRN chain a served as its model; Uniformly 15N-labelled for NMR; also called WT Ubc9; Ubc9WT; source: recombinant, purified (Ni-NTA chromatography, gel filtration)
Assay: ITC; 2 μl additions of peptide to 200 μl of WT Ubc9 or Ac-Ubc9K65; 25 °C; pH 8.0, 20 mM potassium phosphate, 100 mM NaCl; iTC200; fitted assuming 1:1 binding stoichiometry
Conditions: both partners purified

T1 sequence (P63279 whole entry): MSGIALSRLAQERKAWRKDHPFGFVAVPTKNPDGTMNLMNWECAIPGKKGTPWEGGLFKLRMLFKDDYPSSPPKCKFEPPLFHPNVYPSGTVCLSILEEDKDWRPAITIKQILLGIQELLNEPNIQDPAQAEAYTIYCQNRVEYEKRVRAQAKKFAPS

- Kd: 57 µM
B1: CBP NDSM peptide (peptide)
chain: VKVEVKEEEESSSN
modifications: Synthetic peptide; true ends and caps are only in Figure 1A. Limits used here are the Psi-K-x-E core through x10 (x1-x10 = VKEEEESSSN, Supplementary Table 1), around sumoylation site K1056

— paper PMC5727262 (Scientific Reports, 2017)
